According to IntAct's records for PubMed 17872410:

B1: Adagio protein 3 (Arabidopsis thaliana (Mouse-ear cress)), Q9C9W9 (parent)
chain: MAREHAIGEATGKRKKRGRVEEAEEYCNDGIEEQVEDEKLPLEVGMFYYPMTPPSFIVSDALEPDFPLIYVNRVFEVFTGYRADEVLGRNCRFLQYRDPRAQRRHPLVDPVVVSEIRRCLEEGIEFQGELLNFRKDGTPLVNRLRLAPIRDDDGTITHVIGIQVFSETTIDLDRVSYPVFKHKQQLDQTSECLFPSGSPRFKEHHEDFCGILQLSDEVLAHNILSRLTPRDVASIGSACRRLRQLTKNESVRKMVCQNAWGKEITGTLEIMTKKLRWGRLARELTTLEAVCWRKFTVGGIVQPSRCNFSACAVGNRLVLFGGEGVNMQPLDDTFVLNLDAECPEWQRVRVTSSPPGRWGHTLSCLNGSWLVVFGGCGRQGLLNDVFVLDLDAKHPTWKEVAGGTPPLPRSWHSSCTIEGSKLVVSGGCTDAGVLLSDTFLLDLTTDKPTWKEIPTSWAPPSRLGHSLSVFGRTKILMFGGLANSGHLKLRSGEAYTIDLEDEEPRWRELECSAFPGVVVPPPRLDHVAVSMPCGRVIIFGGSIAGLHSPSQLFLIDPAEEKPSWRILNVPGKPPKLAWGHSTCVVGGTRVLVLGGHTGEEWILNELHELCLASRQDSDL
partner: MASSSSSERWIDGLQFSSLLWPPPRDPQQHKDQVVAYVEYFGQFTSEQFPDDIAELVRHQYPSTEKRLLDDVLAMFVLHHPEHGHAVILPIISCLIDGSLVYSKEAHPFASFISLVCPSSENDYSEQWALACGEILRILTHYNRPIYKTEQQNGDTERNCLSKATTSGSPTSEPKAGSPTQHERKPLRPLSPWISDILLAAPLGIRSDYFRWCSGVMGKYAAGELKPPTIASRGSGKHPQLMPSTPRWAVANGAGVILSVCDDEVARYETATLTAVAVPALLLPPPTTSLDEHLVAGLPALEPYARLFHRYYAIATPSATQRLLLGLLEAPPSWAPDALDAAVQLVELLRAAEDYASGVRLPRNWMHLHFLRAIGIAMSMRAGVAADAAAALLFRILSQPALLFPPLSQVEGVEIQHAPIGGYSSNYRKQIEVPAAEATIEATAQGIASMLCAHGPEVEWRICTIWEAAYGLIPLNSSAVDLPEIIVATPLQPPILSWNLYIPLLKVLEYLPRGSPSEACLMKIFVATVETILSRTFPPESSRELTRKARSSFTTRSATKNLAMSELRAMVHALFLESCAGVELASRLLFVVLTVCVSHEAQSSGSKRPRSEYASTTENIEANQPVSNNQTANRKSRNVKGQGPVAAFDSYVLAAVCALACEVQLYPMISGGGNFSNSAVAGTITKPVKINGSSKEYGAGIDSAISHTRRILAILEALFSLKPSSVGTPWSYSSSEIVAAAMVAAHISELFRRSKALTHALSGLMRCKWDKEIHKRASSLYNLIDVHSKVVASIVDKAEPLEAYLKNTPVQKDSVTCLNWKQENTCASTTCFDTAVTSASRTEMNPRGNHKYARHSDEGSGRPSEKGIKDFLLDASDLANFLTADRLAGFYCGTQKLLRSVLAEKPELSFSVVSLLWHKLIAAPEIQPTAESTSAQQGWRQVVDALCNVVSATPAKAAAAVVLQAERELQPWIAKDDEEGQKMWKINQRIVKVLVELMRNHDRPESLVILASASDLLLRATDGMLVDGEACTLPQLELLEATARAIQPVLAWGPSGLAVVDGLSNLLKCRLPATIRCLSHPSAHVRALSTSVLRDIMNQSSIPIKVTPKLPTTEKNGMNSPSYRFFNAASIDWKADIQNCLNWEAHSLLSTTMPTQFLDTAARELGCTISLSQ

Variants of: B1
Conditions: with gigan_arath GI

effect of a mutation on the interaction	Variant
decreasing interaction	C91A
disrupting interaction	Q163L
decreasing interaction	R92D
